Measured values taken from US20140087995A1 (published 2014).
Numbered stars: 1 amine (or outer) side, 2 acyl side, 3 side chain; on linkers, the order of the positions; unused ones are H or OH. Bridge positions count the residues as written; N and C are the ends. Side chains are listed from the residue outwards. Ends that are not written are not given here. * marks the point of attachment. C20 diacid = O=C(O)CCCCCCCCCCCCCCCCCCC(=O)*; γGlu = O=C(O)[C@H](CCC(=O)[*:2])N[*:1]; AEEA = NCCOCCOCC(=O)O

T1: human calcitonin receptor (human, UniProt P30988 25-474)
T1 sequence (looked up): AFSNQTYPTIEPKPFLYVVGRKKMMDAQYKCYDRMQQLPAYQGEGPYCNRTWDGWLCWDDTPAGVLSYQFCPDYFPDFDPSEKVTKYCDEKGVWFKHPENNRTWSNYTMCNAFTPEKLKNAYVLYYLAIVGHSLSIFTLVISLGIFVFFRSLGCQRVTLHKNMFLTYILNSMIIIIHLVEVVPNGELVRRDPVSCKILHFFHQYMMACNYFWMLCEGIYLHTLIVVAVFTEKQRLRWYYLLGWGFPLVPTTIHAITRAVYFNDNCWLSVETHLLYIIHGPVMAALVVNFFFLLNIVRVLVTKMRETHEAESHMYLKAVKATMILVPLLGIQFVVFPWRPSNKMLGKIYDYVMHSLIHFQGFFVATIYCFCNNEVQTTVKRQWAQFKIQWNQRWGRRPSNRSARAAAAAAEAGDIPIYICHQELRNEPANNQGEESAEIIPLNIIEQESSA

B1: N^ε1-[(4S)-4-carboxy-4-[[(4S)-4-carboxy-4-(19-carboxynonadecanoylamino)butanoyl]amino]butanoyl]-[Asp14,Arg17,Pro21,Pro27,Asp35]-h-amylin (peptide)
peptide: K([γGlu-γGlu-C20 diacid])CNTATCATQRLADFLRHSSPNFGAIPSSTNVGSDTY-NH2
modifications: disulfide 2-7; N-terminus assumed
SMILES: CC[C@H](C)[C@H](NC(=O)[C@H](C)NC(=O)CNC(=O)[C@H](Cc1ccccc1)NC(=O)[C@H](CC(N)=O)NC(=O)[C@@H]1CCCN1C(=O)[C@H](CO)NC(=O)[C@H](CO)NC(=O)[C@H](Cc1c[nH]cn1)NC(=O)[C@H](CCCNC(=N)N)NC(=O)[C@H](CC(C)C)NC(=O)[C@H](Cc1ccccc1)NC(=O)[C@H](CC(=O)O)NC(=O)[C@H](C)NC(=O)[C@H](CC(C)C)NC(=O)[C@H](CCCNC(=N)N)NC(=O)[C@H](CCC(N)=O)NC(=O)[C@@H](NC(=O)[C@H](C)NC(=O)[C@@H]1CSSC[C@H](NC(=O)[C@@H](N)CCCCNC(=O)CC[C@H](NC(=O)CC[C@H](NC(=O)CCCCCCCCCCCCCCCCCCC(=O)O)C(=O)O)C(=O)O)C(=O)N[C@@H](CC(N)=O)C(=O)N[C@@H]([C@@H](C)O)C(=O)N[C@@H](C)C(=O)N[C@@H]([C@@H](C)O)C(=O)N1)[C@@H](C)O)C(=O)N1CCC[C@H]1C(=O)N[C@@H](CO)C(=O)N[C@@H](CO)C(=O)N[C@H](C(=O)N[C@@H](CC(N)=O)C(=O)N[C@H](C(=O)NCC(=O)N[C@@H](CO)C(=O)N[C@@H](CC(=O)O)C(=O)N[C@H](C(=O)N[C@@H](Cc1ccc(O)cc1)C(N)=O)[C@@H](C)O)C(C)C)[C@@H](C)O
notes: h-amylin derivative; disulfide bridge and C-terminal amide as told for human amylin; also called compound 2
B2: N{Alpha-1}-[(4S)-4-carboxy-4-(19-carboxynonadecanoylamino)butanoyl]-[Glu14,Arg17,Pro21,Pro27,Lys34]-h-amylin (peptide)
peptide: {C20 diacid-γGlu}-KCNTATCATQRLAEFLRHSSPNFGAIPSSTNVGKNTY-NH2
modifications: disulfide 2-7
SMILES: CC[C@H](C)[C@H](NC(=O)[C@H](C)NC(=O)CNC(=O)[C@H](Cc1ccccc1)NC(=O)[C@H](CC(N)=O)NC(=O)[C@@H]1CCCN1C(=O)[C@H](CO)NC(=O)[C@H](CO)NC(=O)[C@H](Cc1c[nH]cn1)NC(=O)[C@H](CCCNC(=N)N)NC(=O)[C@H](CC(C)C)NC(=O)[C@H](Cc1ccccc1)NC(=O)[C@H](CCC(=O)O)NC(=O)[C@H](C)NC(=O)[C@H](CC(C)C)NC(=O)[C@H](CCCNC(=N)N)NC(=O)[C@H](CCC(N)=O)NC(=O)[C@@H](NC(=O)[C@H](C)NC(=O)[C@@H]1CSSC[C@H](NC(=O)[C@H](CCCCN)NC(=O)CC[C@H](NC(=O)CCCCCCCCCCCCCCCCCCC(=O)O)C(=O)O)C(=O)N[C@@H](CC(N)=O)C(=O)N[C@@H]([C@@H](C)O)C(=O)N[C@@H](C)C(=O)N[C@@H]([C@@H](C)O)C(=O)N1)[C@@H](C)O)C(=O)N1CCC[C@H]1C(=O)N[C@@H](CO)C(=O)N[C@@H](CO)C(=O)N[C@H](C(=O)N[C@@H](CC(N)=O)C(=O)N[C@H](C(=O)NCC(=O)N[C@@H](CCCCN)C(=O)N[C@@H](CC(N)=O)C(=O)N[C@H](C(=O)N[C@@H](Cc1ccc(O)cc1)C(N)=O)[C@@H](C)O)C(C)C)[C@@H](C)O
notes: h-amylin derivative; disulfide bridge and C-terminal amide as told for human amylin; also called compound 36
B3: N^ε1-[2-[2-[2-(19-carboxynonadecanoylamino)ethoxy]ethoxy]acetyl]-[Arg17,Pro21,Pro27]-h-amylin (peptide)
peptide: K([AEEA-C20 diacid])CNTATCATQRLANFLRHSSPNFGAIPSSTNVGSNTY-NH2
modifications: disulfide 2-7; N-terminus assumed
SMILES: CC[C@H](C)[C@H](NC(=O)[C@H](C)NC(=O)CNC(=O)[C@H](Cc1ccccc1)NC(=O)[C@H](CC(N)=O)NC(=O)[C@@H]1CCCN1C(=O)[C@H](CO)NC(=O)[C@H](CO)NC(=O)[C@H](Cc1c[nH]cn1)NC(=O)[C@H](CCCNC(=N)N)NC(=O)[C@H](CC(C)C)NC(=O)[C@H](Cc1ccccc1)NC(=O)[C@H](CC(N)=O)NC(=O)[C@H](C)NC(=O)[C@H](CC(C)C)NC(=O)[C@H](CCCNC(=N)N)NC(=O)[C@H](CCC(N)=O)NC(=O)[C@@H](NC(=O)[C@H](C)NC(=O)[C@@H]1CSSC[C@H](NC(=O)[C@@H](N)CCCCNC(=O)COCCOCCNC(=O)CCCCCCCCCCCCCCCCCCC(=O)O)C(=O)N[C@@H](CC(N)=O)C(=O)N[C@@H]([C@@H](C)O)C(=O)N[C@@H](C)C(=O)N[C@@H]([C@@H](C)O)C(=O)N1)[C@@H](C)O)C(=O)N1CCC[C@H]1C(=O)N[C@@H](CO)C(=O)N[C@@H](CO)C(=O)N[C@H](C(=O)N[C@@H](CC(N)=O)C(=O)N[C@H](C(=O)NCC(=O)N[C@@H](CO)C(=O)N[C@@H](CC(N)=O)C(=O)N[C@H](C(=O)N[C@@H](Cc1ccc(O)cc1)C(N)=O)[C@@H](C)O)C(C)C)[C@@H](C)O
notes: h-amylin derivative; disulfide bridge and C-terminal amide as told for human amylin; also called compound 43
B4: N^ε-[(4S)-4-carboxy-4-(19-carboxynonadecanoylamino)butanoyl]Lys[Arg1,Arg17,Pro21,Pro27,His35]-h-amylin (peptide)
peptide: K([γGlu-C20 diacid])RCNTATCATQRLANFLRHSSPNFGAIPSSTNVGSHTY-NH2
modifications: disulfide 3-8; N-terminus assumed
SMILES: CC[C@H](C)[C@H](NC(=O)[C@H](C)NC(=O)CNC(=O)[C@H](Cc1ccccc1)NC(=O)[C@H](CC(N)=O)NC(=O)[C@@H]1CCCN1C(=O)[C@H](CO)NC(=O)[C@H](CO)NC(=O)[C@H](Cc1c[nH]cn1)NC(=O)[C@H](CCCNC(=N)N)NC(=O)[C@H](CC(C)C)NC(=O)[C@H](Cc1ccccc1)NC(=O)[C@H](CC(N)=O)NC(=O)[C@H](C)NC(=O)[C@H](CC(C)C)NC(=O)[C@H](CCCNC(=N)N)NC(=O)[C@H](CCC(N)=O)NC(=O)[C@@H](NC(=O)[C@H](C)NC(=O)[C@@H]1CSSC[C@H](NC(=O)[C@H](CCCNC(=N)N)NC(=O)[C@@H](N)CCCCNC(=O)CC[C@H](NC(=O)CCCCCCCCCCCCCCCCCCC(=O)O)C(=O)O)C(=O)N[C@@H](CC(N)=O)C(=O)N[C@@H]([C@@H](C)O)C(=O)N[C@@H](C)C(=O)N[C@@H]([C@@H](C)O)C(=O)N1)[C@@H](C)O)C(=O)N1CCC[C@H]1C(=O)N[C@@H](CO)C(=O)N[C@@H](CO)C(=O)N[C@H](C(=O)N[C@@H](CC(N)=O)C(=O)N[C@H](C(=O)NCC(=O)N[C@@H](CO)C(=O)N[C@@H](Cc1c[nH]cn1)C(=O)N[C@H](C(=O)N[C@@H](Cc1ccc(O)cc1)C(N)=O)[C@@H](C)O)C(C)C)[C@@H](C)O
notes: h-amylin derivative, N-terminally extended by one residue; disulfide bridge and C-terminal amide as told for human amylin; also called compound 44
B5: N^-1-[(4S)-4-carboxy-4-(19-carboxynonadecanoylamino)butanoyl]-Gly[Arg1,Arg17,Pro21,Pro27]-h-amylin (peptide)
peptide: {C20 diacid-γGlu}-GRCNTATCATQRLANFLRHSSPNFGAIPSSTNVGSNTY-NH2
modifications: disulfide 3-8
SMILES: CC[C@H](C)[C@H](NC(=O)[C@H](C)NC(=O)CNC(=O)[C@H](Cc1ccccc1)NC(=O)[C@H](CC(N)=O)NC(=O)[C@@H]1CCCN1C(=O)[C@H](CO)NC(=O)[C@H](CO)NC(=O)[C@H](Cc1c[nH]cn1)NC(=O)[C@H](CCCNC(=N)N)NC(=O)[C@H](CC(C)C)NC(=O)[C@H](Cc1ccccc1)NC(=O)[C@H](CC(N)=O)NC(=O)[C@H](C)NC(=O)[C@H](CC(C)C)NC(=O)[C@H](CCCNC(=N)N)NC(=O)[C@H](CCC(N)=O)NC(=O)[C@@H](NC(=O)[C@H](C)NC(=O)[C@@H]1CSSC[C@H](NC(=O)[C@H](CCCNC(=N)N)NC(=O)CNC(=O)CC[C@H](NC(=O)CCCCCCCCCCCCCCCCCCC(=O)O)C(=O)O)C(=O)N[C@@H](CC(N)=O)C(=O)N[C@@H]([C@@H](C)O)C(=O)N[C@@H](C)C(=O)N[C@@H]([C@@H](C)O)C(=O)N1)[C@@H](C)O)C(=O)N1CCC[C@H]1C(=O)N[C@@H](CO)C(=O)N[C@@H](CO)C(=O)N[C@H](C(=O)N[C@@H](CC(N)=O)C(=O)N[C@H](C(=O)NCC(=O)N[C@@H](CO)C(=O)N[C@@H](CC(N)=O)C(=O)N[C@H](C(=O)N[C@@H](Cc1ccc(O)cc1)C(N)=O)[C@@H](C)O)C(C)C)[C@@H](C)O
notes: h-amylin derivative, N-terminally extended by one residue; disulfide bridge and C-terminal amide as told for human amylin; also called compound 46
B6: N^ε1-[2-[2-[2-[[(4S)-4-carboxy-4-(19-carboxynonadecanoylamino)butanoyl]amino]ethoxy]ethoxy]acetyl]-[Arg17,Pro21,Pro27]-h-amylin (peptide)
peptide: K([AEEA-γGlu-C20 diacid])CNTATCATQRLANFLRHSSPNFGAIPSSTNVGSNTY-NH2
modifications: disulfide 2-7; N-terminus assumed
SMILES: CC[C@H](C)[C@H](NC(=O)[C@H](C)NC(=O)CNC(=O)[C@H](Cc1ccccc1)NC(=O)[C@H](CC(N)=O)NC(=O)[C@@H]1CCCN1C(=O)[C@H](CO)NC(=O)[C@H](CO)NC(=O)[C@H](Cc1c[nH]cn1)NC(=O)[C@H](CCCNC(=N)N)NC(=O)[C@H](CC(C)C)NC(=O)[C@H](Cc1ccccc1)NC(=O)[C@H](CC(N)=O)NC(=O)[C@H](C)NC(=O)[C@H](CC(C)C)NC(=O)[C@H](CCCNC(=N)N)NC(=O)[C@H](CCC(N)=O)NC(=O)[C@@H](NC(=O)[C@H](C)NC(=O)[C@@H]1CSSC[C@H](NC(=O)[C@@H](N)CCCCNC(=O)COCCOCCNC(=O)CC[C@H](NC(=O)CCCCCCCCCCCCCCCCCCC(=O)O)C(=O)O)C(=O)N[C@@H](CC(N)=O)C(=O)N[C@@H]([C@@H](C)O)C(=O)N[C@@H](C)C(=O)N[C@@H]([C@@H](C)O)C(=O)N1)[C@@H](C)O)C(=O)N1CCC[C@H]1C(=O)N[C@@H](CO)C(=O)N[C@@H](CO)C(=O)N[C@H](C(=O)N[C@@H](CC(N)=O)C(=O)N[C@H](C(=O)NCC(=O)N[C@@H](CO)C(=O)N[C@@H](CC(N)=O)C(=O)N[C@H](C(=O)N[C@@H](Cc1ccc(O)cc1)C(N)=O)[C@@H](C)O)C(C)C)[C@@H](C)O
notes: h-amylin derivative; disulfide bridge and C-terminal amide as told for human amylin; also called compound 41

molecular target: T1, human calcitonin receptor; test: cell-based or functional assay

Row | Binder | hCTR funct. EC50
1 | B1 | 3 nM
2 | B2 | 1.28 nM
3 | B3 | 0.92 nM
4 | B4 | 4.75 nM
5 | B5 | 0.899 nM
6 | B6 | 4.35 nM
